Data published in IntAct's records for PubMed 8922390.

Key:
fak1_chick PTK2 = fak1_chick PTK2 (UniProt Q00944)
Sequence of fak1_chick PTK2 (Q00944 whole entry): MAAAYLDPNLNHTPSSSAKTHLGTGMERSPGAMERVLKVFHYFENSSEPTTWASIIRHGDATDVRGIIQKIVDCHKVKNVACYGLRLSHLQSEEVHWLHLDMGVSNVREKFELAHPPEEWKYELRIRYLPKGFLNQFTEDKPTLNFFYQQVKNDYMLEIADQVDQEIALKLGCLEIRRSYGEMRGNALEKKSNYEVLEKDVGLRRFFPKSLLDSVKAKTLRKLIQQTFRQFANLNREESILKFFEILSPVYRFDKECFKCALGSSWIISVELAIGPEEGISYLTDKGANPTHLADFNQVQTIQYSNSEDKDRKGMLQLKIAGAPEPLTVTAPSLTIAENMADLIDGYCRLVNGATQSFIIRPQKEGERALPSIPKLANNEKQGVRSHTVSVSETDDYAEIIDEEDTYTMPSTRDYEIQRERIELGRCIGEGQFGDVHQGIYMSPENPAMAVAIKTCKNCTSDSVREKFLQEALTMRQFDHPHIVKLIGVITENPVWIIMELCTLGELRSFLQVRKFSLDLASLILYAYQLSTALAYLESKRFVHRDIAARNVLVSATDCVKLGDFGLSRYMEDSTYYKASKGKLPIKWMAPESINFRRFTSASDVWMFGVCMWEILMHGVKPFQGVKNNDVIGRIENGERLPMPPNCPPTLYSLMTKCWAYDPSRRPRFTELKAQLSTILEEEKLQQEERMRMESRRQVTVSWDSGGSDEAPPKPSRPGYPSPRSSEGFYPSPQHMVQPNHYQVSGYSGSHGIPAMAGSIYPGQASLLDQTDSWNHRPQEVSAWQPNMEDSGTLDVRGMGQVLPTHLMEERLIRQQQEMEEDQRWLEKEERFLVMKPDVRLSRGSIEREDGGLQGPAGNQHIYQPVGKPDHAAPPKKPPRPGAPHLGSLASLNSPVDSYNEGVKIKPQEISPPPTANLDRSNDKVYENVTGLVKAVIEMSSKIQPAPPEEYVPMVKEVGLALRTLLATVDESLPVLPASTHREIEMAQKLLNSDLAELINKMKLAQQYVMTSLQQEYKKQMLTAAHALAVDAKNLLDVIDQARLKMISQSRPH

Sequence of VCL, P12003-1 (P12003 other isoform, or with tags, fused parts or gaps): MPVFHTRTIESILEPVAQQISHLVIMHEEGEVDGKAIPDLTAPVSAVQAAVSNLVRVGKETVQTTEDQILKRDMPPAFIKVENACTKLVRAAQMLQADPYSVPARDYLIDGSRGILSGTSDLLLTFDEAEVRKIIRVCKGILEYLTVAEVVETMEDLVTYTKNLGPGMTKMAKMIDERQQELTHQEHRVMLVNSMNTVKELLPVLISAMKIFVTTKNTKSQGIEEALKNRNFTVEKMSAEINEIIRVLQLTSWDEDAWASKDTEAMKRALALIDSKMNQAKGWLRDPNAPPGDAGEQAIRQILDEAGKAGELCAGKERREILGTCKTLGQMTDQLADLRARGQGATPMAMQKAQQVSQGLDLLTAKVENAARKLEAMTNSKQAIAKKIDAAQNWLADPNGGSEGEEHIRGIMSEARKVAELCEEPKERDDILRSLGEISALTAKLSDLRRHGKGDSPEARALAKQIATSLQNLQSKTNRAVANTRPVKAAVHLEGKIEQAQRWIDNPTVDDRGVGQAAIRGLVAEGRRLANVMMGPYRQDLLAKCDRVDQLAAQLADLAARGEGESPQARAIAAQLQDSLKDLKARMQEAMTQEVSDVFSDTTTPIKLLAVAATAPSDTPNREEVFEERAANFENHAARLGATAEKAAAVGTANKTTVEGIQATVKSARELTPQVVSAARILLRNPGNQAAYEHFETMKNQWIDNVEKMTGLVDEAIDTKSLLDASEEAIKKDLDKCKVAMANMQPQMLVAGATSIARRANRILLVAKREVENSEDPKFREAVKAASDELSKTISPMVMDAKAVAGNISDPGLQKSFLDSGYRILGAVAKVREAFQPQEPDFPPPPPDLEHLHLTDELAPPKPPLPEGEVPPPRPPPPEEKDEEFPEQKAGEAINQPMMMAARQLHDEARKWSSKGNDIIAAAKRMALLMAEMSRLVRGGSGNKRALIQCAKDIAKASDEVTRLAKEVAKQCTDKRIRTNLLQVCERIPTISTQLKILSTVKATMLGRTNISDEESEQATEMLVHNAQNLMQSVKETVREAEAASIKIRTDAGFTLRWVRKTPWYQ
Sequence of Paxillin (Gallus gallus (Chicken)), P49024 D146N;R147Q (P49024 whole entry D146N/R147Q): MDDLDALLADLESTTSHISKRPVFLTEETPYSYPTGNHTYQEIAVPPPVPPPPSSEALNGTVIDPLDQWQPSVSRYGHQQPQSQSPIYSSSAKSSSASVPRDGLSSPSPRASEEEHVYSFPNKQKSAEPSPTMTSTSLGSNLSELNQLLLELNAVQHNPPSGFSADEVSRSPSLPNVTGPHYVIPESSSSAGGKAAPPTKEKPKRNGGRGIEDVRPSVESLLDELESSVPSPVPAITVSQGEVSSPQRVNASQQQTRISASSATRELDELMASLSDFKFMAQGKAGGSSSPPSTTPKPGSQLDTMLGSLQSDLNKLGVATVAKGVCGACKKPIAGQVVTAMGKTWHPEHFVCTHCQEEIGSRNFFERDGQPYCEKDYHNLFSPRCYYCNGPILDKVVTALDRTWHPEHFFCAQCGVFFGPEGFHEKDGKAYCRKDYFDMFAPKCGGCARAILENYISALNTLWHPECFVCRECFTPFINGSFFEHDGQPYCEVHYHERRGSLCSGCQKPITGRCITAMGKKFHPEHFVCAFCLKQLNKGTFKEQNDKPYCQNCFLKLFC
Sequence of Paxillin (Gallus gallus (Chicken)), P49024 E151Q (P49024 whole entry E151Q): as the sequence (P49024 whole entry D146N/R147Q) above, with N146D, Q147R, E151Q counted along it

| effect of a mutation on the interaction (VCL, P12003-1) | effect of a mutation on the interaction (fak1_chick PTK2) | Substance |
| --- | --- | --- |
| decreasing interaction | decreasing interaction | Paxillin (Gallus gallus (Chicken)), P49024 D146N;R147Q |
| decreasing interaction | – | Paxillin (Gallus gallus (Chicken)), P49024 E151Q |
